Assays:
[1] = target: Atto532-labelled HP1α (human); test: smTIRFM (fluorescence intensities of individual binding events); as a10, in the presence of 1 μM peptide P3
[2] = target: H3K9me3 (100%) chromatin array (12 nucleosomes) (human) (UniProt P68431); test: smTIRFM (single-molecule total internal reflection fluorescence microscopy); as a3, in the presence of 1 μM peptide P3
[3] = target: H3K9me3 (100%) chromatin array (12 nucleosomes) (human) (UniProt P68431); test: smTIRFM (single-molecule total internal reflection fluorescence microscopy); as a3, with the mutated peptide P4 added (concentration not given)
[4] = target: H3K9me3 (100%) chromatin array (12 nucleosomes) (human) (UniProt P68431); test: smTIRFM (single-molecule total internal reflection fluorescence microscopy); as a3, with 50 nM unlabelled HP1α added to 1 nM Atto532-labelled HP1α
[5] = target: H3K9me3 (100%) chromatin array (12 nucleosomes) (human) (UniProt P68431); test: smTIRFM (single-molecule total internal reflection fluorescence microscopy); as a3, with 250 nM unlabelled HP1α added to 1 nM Atto532-labelled HP1α
[6] = target: H3K9me3 (100%) chromatin array (12 nucleosomes) (human) (UniProt P68431); test: smTIRFM (single-molecule total internal reflection fluorescence microscopy); as a3, with 1000 nM unlabelled HP1α added to 1 nM Atto532-labelled HP1α
[7] = target: Atto532-labelled HP1α (human); test: smTIRFM (fluorescence intensities of individual binding events); 1 nM Atto532-labelled HP1α on immobilised chromatin arrays; share of events with the intensity of a dimer
[8] = target: H3K9me0 (unmodified) chromatin array (12 nucleosomes) (human) (UniProt P68431); test: smTIRFM (single-molecule total internal reflection fluorescence microscopy); chromatin arrays or mononucleosomes immobilised by biotin-neutravidin on PEG-passivated coverslips; 1 nM Atto532-labelled HP1α or 0.5 nM HP1αcdm in 50 mM HEPES, 130 mM KCl, 10% glycerol, 2 mM trolox, 0.005% tween-20, glucose and oxygen removal system; dwell-time histograms; apparent KD for a nucleosome in an array, calculated from the fast phase
[9] = target: H3K9me3 (100%) chromatin array (12 nucleosomes) (human) (UniProt P68431); test: as above
[10] = target: H3K9me3 (25%) chromatin array (12 nucleosomes) (human) (UniProt P68431); test: as above
[11] = target: H3K9me3 (50%) chromatin array (12 nucleosomes) (human) (UniProt P68431); test: as above
[12] = target: H3K9me3 (75%) chromatin array (12 nucleosomes) (human) (UniProt P68431); test: as above
[13] = target: H3K9me3 mononucleosome (human) (UniProt P68431); test: as above
[14] = target: H3K9me3 (100%) chromatin array (12 nucleosomes) (human) (UniProt P68431); test: as above; remark: listed apart in the source
[15] = target: H3K9me3 (100%) chromatin array (12 nucleosomes) (human) (UniProt P68431); test: as above; remark: listed apart in the source
[16] = target: Atto532-labelled HP1α (human); test: MST; H3K9me3 1–14 peptide serially diluted (0.1–100 μM) and mixed 1:1 with a 300 nM stock of Atto532-labelled HP1α or HP1αcdm; 150 mM NaCl, 50 mM HEPES, 0.05% Tween, 1 mM DTT, pH 7.5; quadratic binding equation
HP1α (I163E) (human) = HP1α (I163E) (human) (UniProt P45973); test: as above
[17] = target: HP1αcdm (covalently dimerized HP1α, Atto532-labelled) (human) (UniProt P45973); test: as above
[18] = target: H3K9me3 (100%) chromatin array (12 nucleosomes) (human) (UniProt P68431); test: smTIRFM (single-molecule total internal reflection fluorescence microscopy); chromatin arrays or mononucleosomes immobilised by biotin-neutravidin on PEG-passivated coverslips; 1 nM Atto532-labelled HP1α or 0.5 nM HP1αcdm in 50 mM HEPES, 130 mM KCl, 10% glycerol, 2 mM trolox, 0.005% tween-20, glucose and oxygen removal system; dwell-time histograms; apparent KD for a nucleosome in an array, calculated from the fast phase; remark: listed apart in the source

HP1α (W40A), sequence (P45973 whole entry, stated change not applied): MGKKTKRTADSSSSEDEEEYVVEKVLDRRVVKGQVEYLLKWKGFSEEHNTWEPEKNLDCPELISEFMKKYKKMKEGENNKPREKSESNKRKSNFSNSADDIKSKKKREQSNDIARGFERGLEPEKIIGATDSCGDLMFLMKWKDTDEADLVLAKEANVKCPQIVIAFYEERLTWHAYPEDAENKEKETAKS

Substance: Atto532-labelled HP1α (natural protein)
- percent dimeric HP1α [1]: 42%
- Kd [2]: 0.38 µM
- kon [2]: 7.94e+06 M⁻¹ s⁻¹
- λon (apparent association time constant) [2]: 10.5 s
- τoff,1 (fast phase of dissociation) [2]: 0.33 s
- τoff,2 (slow phase of dissociation) [2]: 4.8 s
- Kd [3]: 0.84 µM
- kon [3]: 4.25e+06 M⁻¹ s⁻¹
- λon (apparent association time constant) [3]: 19.6 s
- τoff,1 (fast phase of dissociation) [3]: 0.28 s
- τoff,2 (slow phase of dissociation) [3]: 4.45 s
- Kd [4]: 1.48 µM
- kon [4]: 3.55e+06 M⁻¹ s⁻¹
- λon (apparent association time constant) [4]: 23.8 s
- τoff,1 (fast phase of dissociation) [4]: 0.19 s
- τoff,2 (slow phase of dissociation) [4]: 3.97 s
- Kd [5]: 3.72 µM
- kon [5]: 2.07e+06 M⁻¹ s⁻¹
- λon (apparent association time constant) [5]: 43.3 s
- τoff,1 (fast phase of dissociation) [5]: 0.13 s
- τoff,2 (slow phase of dissociation) [5]: 3.93 s
- Kd [6]: 3.11 µM
- kon [6]: 2.92e+06 M⁻¹ s⁻¹
- λon (apparent association time constant) [6]: 29.3 s
- τoff,1 (fast phase of dissociation) [6]: 0.11 s
- τoff,2 (slow phase of dissociation) [6]: 2.75 s
- percent of binding events attributed to dimeric protein [7]: 17%
- τoff,1 (fast phase of dissociation) [8]: 0.08 s
- τoff,2 (slow phase of dissociation) [8]: 3.7 s
- Kd [9]: 1.16 µM
- kon [9]: 3.64e+06 M⁻¹ s⁻¹
- λon (apparent association time constant) [9]: 22.9 s
- τoff,1 (fast phase of dissociation) [9]: 0.25 s
- τoff,2 (slow phase of dissociation) [9]: 2.26 s
- Kd [10]: 6.06 µM
- kon [10]: 1.1e+06 M⁻¹ s⁻¹
- λon (apparent association time constant) [10]: 75.8 s
- τoff,1 (fast phase of dissociation) [10]: 0.15 s
- τoff,2 (slow phase of dissociation) [10]: 4.57 s
- Kd [11]: 3.4 µM
- kon [11]: 1.73e+06 M⁻¹ s⁻¹
- λon (apparent association time constant) [11]: 48.2 s
- τoff,1 (fast phase of dissociation) [11]: 0.17 s
- τoff,2 (slow phase of dissociation) [11]: 4.09 s
- Kd [12]: 3.23 µM
- kon [12]: 1.63e+06 M⁻¹ s⁻¹
- λon (apparent association time constant) [12]: 51 s
- τoff,1 (fast phase of dissociation) [12]: 0.19 s
- τoff,2 (slow phase of dissociation) [12]: 4.03 s
- τoff,1 (fast phase of dissociation) [13]: 0.13 s
- τoff,2 (slow phase of dissociation) [13]: 1.18 s
- τoff,2 (slow phase of dissociation) [14]: 2.3 s
- kon [15]: 3.58e+06 M⁻¹ s⁻¹

Substance: H3K9me3 1–14 peptide (from UniProt P68431 2-15)
- Kd [16]: 5.36 µM
- Kd (HP1α (I163E) (human)): 9.4 µM
- Kd [17]: 12.5 µM

Substance: HP1α (I163E) (from UniProt P45973 1-191) (natural protein)
- λon (apparent association time constant) [9]: > 100 s
- τoff,1 (fast phase of dissociation) [9]: 0.23 s
- τoff,2 (slow phase of dissociation) [9]: 4.11 s

Substance: HP1α (W40A) (from UniProt P45973 1-191) (natural protein)
- τoff,1 (fast phase of dissociation) [9]: 0.1 s
- τoff,2 (slow phase of dissociation) [9]: 0.56 s

Substance: HP1αcdm (covalently dimerized HP1α, Atto532-labelled) (from UniProt P45973 1-177)
- Kd [9]: 0.13 µM
- kon [9]: 2.24e+07 M⁻¹ s⁻¹
- λon (apparent association time constant) [9]: 7.45 s
- τoff,1 (fast phase of dissociation) [9]: 0.33 s
- τoff,2 (slow phase of dissociation) [9]: 3.4 s
- Kd [18]: 0.14 µM
